One assay addresses T1, Eotaxin (Homo sapiens, UniProt P51671).
T1 construct: purchased 300-21
Kind of assay: Micro-array analysis of chemokine binding peptides: Eotaxin. The procedure:
(§1) (1) Printing: Chemokine (CK) solution (in water) was serially diluted with Print Reagent (GenTel BioSurfaces USA) to final concentrations of 50 μg and 25 μg/ml. BSA/BSA-Biotin control solutions (in water) were diluted with Print Reagent to 100 μg/ml. Amplified stock of M13 phage control (M13KEgIII Cloning Vector, New England Biolabs, Cat.No.E8101S) was stored in Tris Buffered Saline (TBS; pH7.5, 4° C.) and diluted with Print Reagent to the working titre (10^8 pfu/μl). An automated spotting robot (16 pin print tool, 0.4 mm head; BioRobotics, UK) was used to print the CK/BSA control/M13 control, 5 repeats per sample (CK 25 μg/ml and 50 μg/ml; BSA 100 μg/ml; M13 20 μl), on PATH Protein Microarray Slides (GenTel, Prod.No. 2-1005/-1025) at […], and 50-70% relative humidity. Printed micro-array slides were stored at Room Temperature (RT) or 4° C. for at least 24 h before use.
(§2) (2) Blocking: Block Buffer (500 μl/partition; PATHblock, GenTel, Prod.No. 2-1014) was applied to the slide for 1 hour at room temp (RT). After removal of Block Buffer, the slide was air dried for 25 minutes;
(§3) (3) Phage Presented Peptide Binding: Amplified recombinant phage stock was stored in TBS and diluted with Wash Buffer to working titer (10^7 pfu/μl). Recombinant phage suspension (300 μl) was applied per partition and incubated at RT for 1 hour with gentle agitation.
(§4) (4) First Washing: The slides were washed twice with Wash Buffer 300 μl/partition).
(§5) (5) Primary Antibody (Ab) Labeling: The slides were incubated with the Primary Ab (1 mg/ml diluted ×2500 (Wash Reagent), 300 μl; Mouse Anti-M13 monoclonal Ab; Amersham Biosciences, UK; Product Code 27-9420-01) for 45 minutes at RT.
(§6) (6) Second Washing: The slides were washed twice with Wash Buffer (300 μl/partition).
(§7) (7) Secondary Ab Labeling: The slides were incubated with Secondary Ab (1.5 mg/ml diluted ×5000 (Wash Reagent), 300 μl; Cy3-conjugated AffiniPure Goat Anti-Mouse IgG; Jackson ImmunoReserch Labs, USA; Product Code 115-165-062).
(§8) (8) Third Washing: The slides were washed twice with Wash Buffer (300 μl/partition).
(§9) (9) Rinse: the slides were rinsed twice with Rinse Buffer (PATHrinse, GenTel, Prod.No. 2-1018) then dried well.
(§10) (10) Scanning: The peptide-bound, labeled slide was scanned (Laser Intensity 80%, Gain 80%, Resolution 10 μm) with a ScanArray Life Scanner (Packard BioChip Technologies, USA).
(§11) (11) Analysis: Quantitative analysis of micro-array was performed by the SpotReader program of Niles Scientific (USA) and presented as Relative Fluorescence (RF) as a function of CK concentration. Micro-array readout (Cy3 fluorescence) was quantified to determine the relative binding affinities of a CBP for the CKs and by inference, the specificity of the CBP for binding to a CK.

The target of the next assay is T2, MCP-4 (Homo sapiens, UniProt Q99616).
T2 construct: purchased 300-24
Kind of assay: Micro-array analysis of chemokine binding peptides: MCP-4. The procedure: as §1, §2, §3, §4, §5, §6, §7, §8, §9, §10, §11

The target of the next assay is T3, MCP-2 (Homo sapiens, UniProt P80075).
T3 construct: purchased 300-15
T3 sequence (P80075 24-99): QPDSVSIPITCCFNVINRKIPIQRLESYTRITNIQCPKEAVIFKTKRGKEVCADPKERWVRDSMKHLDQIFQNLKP
Kind of assay: Micro-array analysis of chemokine binding peptides: MCP-2. The procedure: as §1, §2, §3, §4, §5, §6, §7, §8, §9, §10, §11

The next assay addresses T4, BCA-1 (Homo sapiens, UniProt O43927).
T4 construct: purchased 300-47
T4 sequence (O43927 23-109): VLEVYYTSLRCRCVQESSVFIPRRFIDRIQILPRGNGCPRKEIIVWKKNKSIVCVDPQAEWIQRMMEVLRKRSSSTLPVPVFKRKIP
The assay can be described thus: Micro-array analysis of chemokine binding peptides: BCA-1. The procedure: as §1, §2, §3, §4, §5, §6, §7, §8, §9, §10, §11

The next assay has as its target T5, TECK (Homo sapiens, UniProt O15444).
T5 construct: purchased 300-45
T5 sequence (O15444 24-150): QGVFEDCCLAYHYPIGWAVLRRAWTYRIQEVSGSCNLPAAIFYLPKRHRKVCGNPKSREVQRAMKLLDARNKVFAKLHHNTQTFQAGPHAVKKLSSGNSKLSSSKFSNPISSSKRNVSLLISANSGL
The assay can be described thus: Micro-array analysis of chemokine binding peptides: TECK. The procedure: as §1, §2, §3, §4, §5, §6, §7, §8, §9, §10, §11

The next assay concerns the target T6, Eotaxin 2 (Homo sapiens, UniProt O00175).
T6 construct: purchased 300-33
T6 sequence (O00175 27-119): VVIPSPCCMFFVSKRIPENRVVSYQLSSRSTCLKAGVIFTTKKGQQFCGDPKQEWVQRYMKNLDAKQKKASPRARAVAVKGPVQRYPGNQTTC
The assay can be described thus: Micro-array analysis of chemokine binding peptides: Eotaxin 2. The procedure:
as §1, §2, §3, §4, §5, §6, §7, §8, §9, §10, §11

The target of another assay is T7, Eotaxin 3 (Homo sapiens, UniProt Q9Y258).
T7 construct: purchased 300-48
T7 sequence (Q9Y258 24-94): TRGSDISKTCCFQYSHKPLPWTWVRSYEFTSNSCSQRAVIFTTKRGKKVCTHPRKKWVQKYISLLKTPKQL
The assay can be described thus: Micro-array analysis of chemokine binding peptides: Eotaxin 3. The procedure: as §1, §2, §3, §4, §5, §6, §7, §8, §9, §10, §11

A further assay has as its target T8, Exodus-2 (Homo sapiens, UniProt O00585).
T8 construct: purchased 300-35
T8 sequence (O00585 24-134): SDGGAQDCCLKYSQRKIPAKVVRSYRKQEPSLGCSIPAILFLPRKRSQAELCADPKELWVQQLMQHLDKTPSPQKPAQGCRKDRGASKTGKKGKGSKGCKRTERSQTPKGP
The assay can be described thus: Micro-array analysis of chemokine binding peptides: Exodus-2. The procedure: as §1, §2, §3, §4, §5, §6, §7, §8, §9, §10, §11

Another assay deals with T9, MCP-1 (Homo sapiens, UniProt P13500).
T9 construct: purchased 300-04
The assay can be described thus: Micro-array analysis of chemokine binding peptides: MCP-1. The procedure: as §1, §2, §3, §4, §5, §6, §7, §8, §9, §10, §11

Another assay deals with T10, Lymphotactin (Homo sapiens, UniProt P47992).
T10 construct: purchased 300-20
T10 sequence (P47992 22-114): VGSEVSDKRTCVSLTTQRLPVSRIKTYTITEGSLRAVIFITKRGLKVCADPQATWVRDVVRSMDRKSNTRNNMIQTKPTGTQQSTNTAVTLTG
Kind of assay: Micro-array analysis of chemokine binding peptides: Lymphotactin. The procedure:
as §1, §2, §3, §4, §5, §6, §7, §8, §9, §10, §11

The target in the next assay is T11, GRO-β (Homo sapiens, UniProt P19875).
T11 construct: purchased 300-39
T11 sequence (P19875 35-107): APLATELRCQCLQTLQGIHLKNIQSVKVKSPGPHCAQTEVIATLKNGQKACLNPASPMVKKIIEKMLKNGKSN
The assay can be described thus: Micro-array analysis of chemokine binding peptides: GRO-β. The procedure: as §1, §2, §3, §4, §5, §6, §7, §8, §9, §10, §11

The target of the next assay is T12, RANTES (Homo sapiens, UniProt P13501).
T12 construct: purchased 300-06
T12 sequence (P13501 24-91): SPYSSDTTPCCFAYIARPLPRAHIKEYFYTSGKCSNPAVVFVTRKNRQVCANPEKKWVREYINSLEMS
The assay can be described thus: Micro-array analysis of chemokine binding peptides: RANTES. The procedure:
as §1, §2, §3, §4, §5, §6, §7, §8, §9, §10, §11

Another assay relates to IL-8. The assay can be described thus: Micro-array analysis of chemokine binding peptides: IL-8. The procedure:
as §1, §2, §3, §4, §5, §6, §7, §8, §9, §10, §11

The target in a further assay is T13, I-TAC (Homo sapiens, UniProt O14625).
T13 construct: purchased 300-46
T13 sequence (O14625 22-94): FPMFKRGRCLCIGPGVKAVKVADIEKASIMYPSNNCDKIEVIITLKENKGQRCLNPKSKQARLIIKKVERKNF
Kind of assay: Micro-array analysis of chemokine binding peptides: I-TAC. The settings on record: limit = start of the upper 75% of that peptide's response range. The procedure: as §1, §2, §3, §4, §5, §6, §7, §8, §9, §10, §11

The next assay concerns the target T14, Fractalkine (Homo sapiens, UniProt P78423).
T14 construct: purchased 300-31
T14 sequence (P78423 25-100 limits assumed): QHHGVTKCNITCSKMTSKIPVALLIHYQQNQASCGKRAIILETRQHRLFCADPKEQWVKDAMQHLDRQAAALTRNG
The assay can be described thus: Micro-array analysis of chemokine binding peptides: Fractalkine. The procedure: as §1, §2, §3, §4, §5, §6, §7, §8, §9, §10, §11

Another assay addresses T15, Mig (Homo sapiens, UniProt Q07325).
T15 construct: purchased 300-26
T15 sequence (Q07325 23-125): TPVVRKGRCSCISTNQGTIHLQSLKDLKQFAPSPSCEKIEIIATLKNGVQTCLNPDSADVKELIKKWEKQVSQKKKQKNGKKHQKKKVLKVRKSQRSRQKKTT
The assay can be described thus: Micro-array analysis of chemokine binding peptides: Mig. The settings on record: limit = start of the upper 75% of that peptide's response range. The procedure:
as §1, §2, §3, §4, §5, §6, §7, §8, §9, §10, §11

A further assay concerns the target T16, IP-10 (Homo sapiens, UniProt P02778).
T16 construct: purchased 300-12
T16 sequence (P02778 22-98): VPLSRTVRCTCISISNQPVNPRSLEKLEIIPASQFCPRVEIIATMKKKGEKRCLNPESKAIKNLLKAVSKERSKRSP
The assay can be described thus: Micro-array analysis of chemokine binding peptides: IP-10. The settings on record: limit = start of the upper 75% of that peptide's response range. The procedure: as §1, §2, §3, §4, §5, §6, §7, §8, §9, §10, §11

The mark [1] stands for this setting: limit = start of the upper 75% of that peptide's response range.

T2 sequence (Q99616 17-98): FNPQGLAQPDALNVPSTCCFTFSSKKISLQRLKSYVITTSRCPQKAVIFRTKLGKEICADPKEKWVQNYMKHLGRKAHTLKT
T1 sequence (P51671 24-97): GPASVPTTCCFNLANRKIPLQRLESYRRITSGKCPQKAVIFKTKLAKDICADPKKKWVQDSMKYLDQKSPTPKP
T9 sequence (P13500 24-99): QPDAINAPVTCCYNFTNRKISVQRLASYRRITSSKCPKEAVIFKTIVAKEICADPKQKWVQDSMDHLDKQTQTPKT
Chain of IL-8 (P10145 28-99 limits assumed): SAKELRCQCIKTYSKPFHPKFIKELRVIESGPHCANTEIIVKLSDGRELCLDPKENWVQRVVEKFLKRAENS

SYYDDVGL [Ph-p27]: in the assay with Eotaxin, the “binding to Eotaxin, stated in words” value is recorded as “bound”. Moreover, in the assay with MCP-4, the “binding to MCP-4, stated in words” value was “bound”. For the same sequence, the “binding to MCP-2, stated in words” value in the assay with MCP-2 is “bound”. Moreover, in the assay with BCA-1, the “binding to BCA-1, stated in words” value is “bound”. Further, in the assay with TECK, the “binding to TECK, stated in words” value was “bound”. In the assay with Eotaxin 2, the “binding to Eotaxin 2, stated in words” value is given as “bound”. Besides, the “binding to Eotaxin 3, stated in words” value with Eotaxin 3 was “bound”. Besides, in the assay with Exodus-2, the “binding to Exodus-2, stated in words” value was “bound”. Also, the “binding to MCP-1, stated in words” value with MCP-1 is “bound”. Moreover, the “binding to Lymphotactin, stated in words” value with Lymphotactin is on record as “bound”. Also, in the assay with GRO-β, the “binding to GRO-β, stated in words” value is on record as “bound”. Further, the “binding to RANTES, stated in words” value with RANTES is recorded as “bound”. Besides, the “binding to IL-8, stated in words” value with IL-8 was “bound”. Moreover, the “binding to I-TAC with relatively high affinity (Relative Fluorescence Units)” value in the assay with I-TAC is on record as > 15,000 RFU. In addition, the “binding to Fractalkine, stated in words” value with Fractalkine is “bound”. In addition, the “binding to Mig with relatively high affinity (Relative Fluorescence Units)” value in the assay with Mig was > 15,000 RFU.
Take WVFGHGMCK [Ph-p25]: the “binding to Eotaxin, stated in words” value with Eotaxin is listed as “bound”. Further, in the assay with MCP-4 (setting [1]), the “binding to MCP-4 with relatively high affinity (Relative Fluorescence Units)” value is reported as > 15,000 RFU. Also, the “binding to MCP-2 with relatively high affinity (Relative Fluorescence Units)” value with MCP-2 (setting [1]) is listed as > 15,000 RFU. The “binding to BCA-1, stated in words” value with BCA-1 is on record as “bound”. For the same sequence, the “binding to TECK, stated in words” value with TECK is listed as “bound”. Further, the “binding to IP-10 with relatively high affinity (Relative Fluorescence Units)” value in the assay with IP-10 is > 15,000 RFU. Further, the “binding to Eotaxin 3, stated in words” value in the assay with Eotaxin 3 is “bound”. Further, the “binding to Exodus-2, stated in words” value with Exodus-2 is recorded as “bound”. Further, the “binding to MCP-1 with relatively high affinity (Relative Fluorescence Units)” value in the assay with MCP-1 (setting [1]) is listed as > 15,000 RFU. For the same sequence, the “binding to Lymphotactin, stated in words” value with Lymphotactin is on record as “bound”. In addition, in the assay with GRO-β (setting [1]), the “binding to GRO-β with relatively high affinity (Relative Fluorescence Units)” value is given as > 15,000 RFU. In the assay with RANTES, the “binding to RANTES, stated in words” value is “bound”. In addition, the “binding to IL-8 with relatively high affinity (Relative Fluorescence Units)” value in the assay on IL-8 (setting [1]) is > 15,000 RFU. Further, in the assay with Fractalkine, the “binding to Fractalkine, stated in words” value is on record as “bound”. Moreover, the “binding to Mig with relatively high affinity (Relative Fluorescence Units)” value with Mig is > 15,000 RFU.
